T1: STARD1_(46-285)-S56A/L59P phosphorylated at Ser57 and Ser195 (human, UniProt P49675 46-285, S56A | L59P, phosphoserine at 57; phosphoserine at 195)
T1 sequence: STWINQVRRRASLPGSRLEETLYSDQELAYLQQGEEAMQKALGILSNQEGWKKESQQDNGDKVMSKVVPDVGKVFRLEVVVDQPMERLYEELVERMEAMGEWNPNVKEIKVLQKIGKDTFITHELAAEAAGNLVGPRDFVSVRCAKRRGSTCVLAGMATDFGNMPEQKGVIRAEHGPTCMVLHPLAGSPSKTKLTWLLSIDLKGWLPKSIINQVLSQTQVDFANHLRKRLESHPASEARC

T2: wild-type full-length human 14-3-3γ (human, UniProt P61981 1-247)
T2 construct: 14-3-3γ, human, wild type, full length; Called untagged in the preparation of the heterodimer; also called untagged 14-3-3γ
T2 sequence (looked up): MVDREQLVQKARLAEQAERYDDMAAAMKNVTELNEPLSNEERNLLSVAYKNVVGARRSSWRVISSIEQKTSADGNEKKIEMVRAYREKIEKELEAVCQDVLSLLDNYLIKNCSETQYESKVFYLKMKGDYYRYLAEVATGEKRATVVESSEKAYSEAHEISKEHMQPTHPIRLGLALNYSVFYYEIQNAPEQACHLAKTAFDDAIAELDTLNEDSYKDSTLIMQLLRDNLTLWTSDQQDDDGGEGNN


Experiments:
[1] = molecular target: the molecule itself; assay: crystal structure; phosphorylated chimeras of 14-3-3σΔC with the STARD1 peptide joined by a GSGSL linker; sitting-drop vapor diffusion; data at 100 K
[2] = molecular target: T1, STARD1_(46-285)-S56A/L59P …; assay: SPR
[3] = molecular target: T1, STARD1_(46-285)-S56A/L59P …; assay: SPR; remark: listed apart in the source
[4] = molecular target: T2, wild-type full-length human 14-3-3γ; assay: time-resolved fluorescence anisotropy; 1 µM 22NC, 10 µM pSTARD1, 100 µM 14-3-3γ; 20 mM Tris-HCl pH 7.5, 150 mM NaCl, 5 mM MgCl2; 25 °C; correlation time of the 22NC bound to STARD1; conditions: both partners purified

Row | Binder | koff [2] | Ka [3] | binding result [4] | binding result [1]
1 | chimeric 14-3-3σΔC protein with the STARD1 Ser195 phosphopeptide (other, human, phosphoserine at Ser195 of the STARD1 peptide, 14-3-3σ, human, without the C-terminal tail (14-3-3σΔC core); linker; steroidogenic acute regulatory protein STARD1 (StAR), human, stretch around Ser195; also called protein with fused Ser195 peptide; not shown: His, N-terminal, cleaved) MERASLIQKAKLAEQAERYEDMAAFMKGAVEKGEELSCEERNLLSVAYKNVVGGQRAAWRVLSSIEQKSNEEGSAAAGPEVREYREKVETELQGVCDTVLGLLDSHLIKEAGDAESRVFYLKMKGDYYRYLAEVATGDDKKRIIDSARSAYQEAMDISKKEMPPTNPIRLGLALNFSVFHYEIANSPEEAISLAKTTFDEAMADLHTLSEDSYKDSTLIMQLLRDNLTLWTGSGSLRRGSTCVLA | – | – | – | binds
2 | 14-3-3ε/γ heterodimer (His6-tagged 14-3-3ε with untagged 14-3-3γ) (complex) chain 1: MDDREDLVYQAKLAEQAERYDEMVESMKKVAGMDVELTVEERNLLSVAYKNVIGARRASWRIISSIEQKEENKGGEDKLKMIREYRQMVETELKLICCDILDVLDKHLIPAANTGESKVFYYKMKGDYHRYLAEFATGNDRKEAAENSLVAYKAASDIAMTELPPTHPIRLGLALNFSVFYYEILNSPDRACRLAKAAFDDAIAELDTLSEESYKDSTLIMQLLRDNLTLWTS chain 2: MVDREQLVQKARLAEQAERYDDMAAAMKNVTELNEPLSNEERNLLSVAYKNVVGARRSSWRVISSIEQKTSADGNEKKIEMVRAYREKIEKELEAVCQDVLSLLDNYLIKNCSETQYESKVFYLKMKGDYYRYLAEVATGEKRATVVESSEKAYSEAHEISKEHMQPTHPIRLGLALNYSVFYYEIQNAPEQACHLAKTAFDDAIAELDTLNEDSYKDSTLIMQLLRDNLTLWTSDQQDDDGGEGNN | 0.0057 s⁻¹ | 67000 M⁻¹ | – | –

Now from value to binder, other results behind:

Row | koff [2] | Ka [3] | binding result [4] | Binder | binding result [1]
3 | 0.0058 s⁻¹ | 77000 M⁻¹ | – | His6-tagged 14-3-3ε (natural protein) MDDREDLVYQAKLAEQAERYDEMVESMKKVAGMDVELTVEERNLLSVAYKNVIGARRASWRIISSIEQKEENKGGEDKLKMIREYRQMVETELKLICCDILDVLDKHLIPAANTGESKVFYYKMKGDYHRYLAEFATGNDRKEAAENSLVAYKAASDIAMTELPPTHPIRLGLALNFSVFYYEILNSPDRACRLAKAAFDDAIAELDTLSEESYKDSTLIMQLLRDNLTLWTS | –
4 | – | – | binds | STARD1_(46-285)-S56A/L59P phosphorylated at Ser57 and Ser195 (domain or fragment, human, UniProt P49675 46-285, looked up, phosphoserine at 57; phosphoserine at 195, steroidogenic acute regulatory protein STARD1 (StAR), human, residues 46-285 of the 285-residue pre-protein; also called pSTARD1; pSTARD1_(46-285)-S56A/L59P) STWINQVRRRASLPGSRLEETLYSDQELAYLQQGEEAMQKALGILSNQEGWKKESQQDNGDKVMSKVVPDVGKVFRLEVVVDQPMERLYEELVERMEAMGEWNPNVKEIKVLQKIGKDTFITHELAAEAAGNLVGPRDFVSVRCAKRRGSTCVLAGMATDFGNMPEQKGVIRAEHGPTCMVLHPLAGSPSKTKLTWLLSIDLKGWLPKSIINQVLSQTQVDFANHLRKRLESHPASEARC | –

From paper doi:10.1101/2020.04.14.040436, “Molecular basis for the recognition of steroidogenic acute regulatory protein by the 14-3-3 protein family” (bioRxiv, 2020)
